Reference: PMC3475183 (Cell, 2011)

Biological target: 3BP2 Tankyrase targeting peptide
Experiment: fluorescence polarisation

B1: recombinant N-terminal region of TNKS2 containing all five ARCs (domain or fragment)
chain: AVEPAARELFEACRNGDVERVKRLVTPEKVNSRDTAGRKSTPLHFAAGFGRKDVVEYLLQNGANVQARDDGGLIPLHNACSFGHAEVVNLLLRHGADPNARDNWNYTPLHEAAIKGKIDVCIVLLQHGAEPTIRNTDGRTALDLADPSAKAVLTGEYKKDELLESARSGNEEKMMALLTPLNVNCHASDGRKSTPLHLAAGYNRVKIVQLLLQHGADVHAKDKGDLVPLHNACSYGHYEVTELLVKHGACVNAMDLWQFTPLHEAASKNRVEVCSLLLSYGADPTLLNCHNKSAIDLAPTPQLKERLAYEFKGHSLLQAAREADVTRIKKHLSLEMVNFKHPQTHETALHCAAASPYPKRKQICELLLRKGANINEKTKEFLTPLHVASEKAHNDVVEVVVKHEAKVNALDNLGQTSLHRAAYCGHLQTCRLLLSYGCDPNIISLQGFTALQMGNENVQQLLQEGISLGNSEADRQLLEAAKAGDVETVKKLCTVQSVNCRDIEGRQSTPLHFAAGYNRVSVVEYLLQHGADVHAKDKGGLVPLHNACSYGHYEVAELLVKHGAVVNVADLWKFTPLHEAAAKGKYEICKLLLQHGADPTKKNRDGNTPLDLVKDGDTDIQDLLRGDAALLDAAKKGCLARVKKLSSPDNVNCRDTQGRHSTPLHLAAGYNNLEVAEYLLQHGADVNAQDKGGLIPLHNAASYGHVDVAALLIKYNACVNATDKWAFTPLHEAAQKGRTQLCALLLAHGADPTLKNQEGQTPLDLVSADDVSALLTAAMPP
**Q.** For B1, which Kd is on record?
**A.** 500 ± 100 nM
